From patent publication US20010034432A1

Assays:
[1] = biological target: human CCR5 with a C-terminal glycine residue followed by the C9 nonapeptide tag (expressed from the (human; bovine) (UniProt P51681); assay: immunoprecipitation from 35S-labeled Cf2Th/PACH/synCCR5 lysate in 1% DHPC, SDS-PAGE
[2] = biological target: human CCR5 with a C-terminal glycine residue followed by the C9 nonapeptide tag (expressed from the (human; bovine) (UniProt P51681); assay: immunoprecipitation from 35S-labeled Cf2Th/PACH/synCCR5 lysate in 1% Cymal-5, SDS-PAGE
[3] = biological target: human CCR5 with a C-terminal glycine residue followed by the C9 nonapeptide tag (expressed from the (human; bovine) (UniProt P51681); assay: immunoprecipitation from 35S-labeled Cf2Th/PACH/synCCR5 lysate in 1% Fos-Choline-14, SDS-PAGE
[4] = biological target: cleavage-defective, cytoplasmic tail-truncated gp160 envelope glycoprotein of the YU2 HIV-1 primary (HIV-1 YU2 primary isolate; bovine) (UniProt P35961); assay: FACS binding curves on gp160-expressing 293T cells and gp160-proteoliposomes
Sequence of UniProt P35961 (P35961 whole entry, the tested form may be a part): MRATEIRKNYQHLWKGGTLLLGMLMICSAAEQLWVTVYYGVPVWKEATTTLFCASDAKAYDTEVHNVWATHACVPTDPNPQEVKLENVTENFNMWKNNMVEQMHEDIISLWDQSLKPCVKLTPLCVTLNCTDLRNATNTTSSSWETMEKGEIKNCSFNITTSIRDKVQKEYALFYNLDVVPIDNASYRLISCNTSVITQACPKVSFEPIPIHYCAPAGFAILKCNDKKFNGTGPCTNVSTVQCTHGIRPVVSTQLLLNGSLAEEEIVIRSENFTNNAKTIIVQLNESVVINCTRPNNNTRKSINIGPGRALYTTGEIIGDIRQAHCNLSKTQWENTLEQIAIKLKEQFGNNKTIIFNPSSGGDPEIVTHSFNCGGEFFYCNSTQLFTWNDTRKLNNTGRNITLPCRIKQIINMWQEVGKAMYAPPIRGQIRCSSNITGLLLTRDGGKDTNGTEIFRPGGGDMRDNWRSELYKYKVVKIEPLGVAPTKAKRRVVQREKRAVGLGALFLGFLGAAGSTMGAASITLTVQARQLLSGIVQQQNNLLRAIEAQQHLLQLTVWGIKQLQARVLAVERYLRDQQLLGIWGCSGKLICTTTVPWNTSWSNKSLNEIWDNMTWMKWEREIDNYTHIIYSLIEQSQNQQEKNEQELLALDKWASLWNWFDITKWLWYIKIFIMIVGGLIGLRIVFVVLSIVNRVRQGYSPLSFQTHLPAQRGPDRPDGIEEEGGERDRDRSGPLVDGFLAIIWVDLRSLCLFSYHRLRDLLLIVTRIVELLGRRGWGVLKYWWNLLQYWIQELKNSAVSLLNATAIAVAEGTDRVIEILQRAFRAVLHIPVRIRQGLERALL

Sequence of UniProt P51681 (P51681 whole entry, the tested form may be a part): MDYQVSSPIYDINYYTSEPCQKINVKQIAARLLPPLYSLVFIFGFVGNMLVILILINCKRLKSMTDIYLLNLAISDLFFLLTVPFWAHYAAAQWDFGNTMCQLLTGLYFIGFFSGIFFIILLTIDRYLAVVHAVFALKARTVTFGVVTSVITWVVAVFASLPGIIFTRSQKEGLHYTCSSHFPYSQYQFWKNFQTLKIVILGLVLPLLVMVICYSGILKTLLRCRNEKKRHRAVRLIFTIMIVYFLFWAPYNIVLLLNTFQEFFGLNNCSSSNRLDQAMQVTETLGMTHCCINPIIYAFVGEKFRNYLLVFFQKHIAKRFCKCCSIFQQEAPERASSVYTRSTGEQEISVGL

Substance | percentage of conformationally intact CCR5 (CCR5 precipitated by 2D7 relative to that precipitated by 1D4) [1] | percentage of conformationally intact CCR5 (CCR5 precipitated by 2D7 relative to that precipitated by 1D4) [2] | percentage of conformationally intact CCR5 (CCR5 precipitated by 2D7 relative to that precipitated by 1D4) [3] | EC50 [4]
2D7 anti-CCR5 antibody (conformation-dependent) | 10% | 98% | 13% | 
CD4BS antibody IgGb12 |  |  |  | < 1 µg/mL
